Key:
[1] = molecular target: Human precursor IL-18 (Pro-IL-18), co-expressed in E. coli from the bicistronic pET28 cassette
[2] = molecular target: Human precursor IL-18 expressed as an N-terminal hexa-histidine tagged fusion
[3] = molecular target: Ubiquitin-IL-18 fusion (76 amino acid ubiquitin fused to the N-terminus of mature human IL-18)

Protein	cleavage to mature IL-18 on co-expression in E. coli [1]	cleavage of prodomain, SDS-PAGE analysis [2]	processing of Ub-IL-18 to mature IL-18 on co-expression in E. coli (Western blot) [3]
6-his tagged N-terminally truncated caspase 4 (protein) MGHHHHHHGALKLCPHEEFLRLCKERAEEIYPIKERNNRTRLALIICNTEFDHLPPRNGADFDITGMKELLEGLDYSVDVEENLTARDMESALRAFATRPEHKSSDSTFLVLMSHGILEGICGTVHDEKKPDVLLYDTIFQIFNNRNCLSLKDKPKVIIVQACRGANRGELWVRDSPTSLEVASSQSSENLEEDAVYKTHVEKDFIAFCSSTPHNVSWRDSTMGSIFITQLITCFQKYSWCCHLEEVFRKVQQSFETPRAKAQMPTIERLSMTRYFYLFPGN	Cleavage to mature IL-18 with caspase-4 is complete by 4 hours at 37 °C or by 18 hours at 29 °C	The cleavage reaction of prodomain was completed >90 % according to SDS-PAGE analysis	–
6-his tagged N-terminally truncated caspase 5 (protein) MGHHHHHHGILKLCPREEFLRLCKKNHDEIYPIKKREDRRRLALIICNTKFDHLPARNGAHYDIVGMKRLLQGLGYTVVDEKNLTARDMESVLRAFAARPEHKSSDSTFLVLMSHGILEGICGTAHKKKKPDVLLYDTIFQIFNNRNCLSLKDKPKVIIVQACRGEKHGELWVRDSPASLAVISSQSSENLEADSVCKIHEEKDFIAFCSSTPHNVSWRDRTRGSIFITELITCFQKYSCCCHLMEIFRKVQKSFEVPQAKAQMPTIERATLTRDFYLFPGN	cleavage to mature EL-18 with caspase-5 is complete by 18 hours at 29 °C	The cleavage reaction of prodomain was completed >90 % according to SDS-PAGE analysis	–
Ubiquitin protease 1 (Ubp-1), full-length (protein) MDLFIESKINSLLQFLFGSRQDFLRNFKTWSNNNNNLSIYLLIFGIVVFFYKKPDHLNYIVESVSEMTTNFRNNNSLSRWLPRSKFTHLDEEILKRGGFIAGLVNDGNTCFMNSVLQSLASSRELMEFLDNNVIRTYEEIEQNEHNEEGNGQESAQDEATHKKNTRKGGKVYGKHKKKLNRKSSSKEDEEKSQEPDITFSVALRDLLSALNAKYYRDKPYFKTNSLLKAMSKSPRKNILLGYDQEDAQEFFQNILAELESNVKSLNTEKLDTTPVAKSELPDDALVGQLNLGEVGTVYIPTEQIDPNSILHDKSIQNFTPFKLMTPLDGITAERIGCLQCGENGGIRYSVFSGLSLNLPNENIGSTLKLSQLLSDWSKPEIIEGVECNRCALTAAHSHLFGQLKEFEKKPEGSIPEKLINAVKDRVHQIEEVLAKPVIDDEDYKKLHTANMVRKCSKSKQILISRPPPLLSIHINRSVFDPRTYMIRKNNSKVLFKSRLNLAPWCCDINEINLDARLPMSKKEKAAQQDSSEDENIGGEYYTKLHERFEQEFEDSEEEKEYDDAEGNYASHYNHTKDISNYDPLNGEVDGVTSDDEDEYIEETDALGNTIKKRIIEHSDVENENVKDNEELQEIDNVSLDEPKINVEDQLETSSDEEDVIPAPPINYARSFSTVPATPLTYSLRSVIVHYGTHNYGHYIAFRKYRGCWWRISDETVYVVDEAEVLSTPGVFMLFYEYDFDEETGKMKDDLEAIQSNNEEDDEKEQEQKGVQEPKESQEQGEGEEQEEGQEQMKFERTEDHRDISGKDVN	–	–	efficient processing of Ub-IL-18 to mature active IL-18

— patent publication US20030143198
